{"source": "the supplement of paper PMC9112550", "about": "“Optimization of the antimicrobial peptide Bac7 by deep mutational scanning” (BMC Biology, 2022);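 further: peptides expressed intracellularly from a pBAD plasmid library in pooled LB shake-flask culture, induced with 0.3% L-arabinose, DNA abundance read by NGS, three biological replicates, DESeq2 with apeglm shrinkage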", "data": [{"tested_on": "Escherichia coli TOP10", "assay": "shrunken log2 fold change of peptide-encoding DNA abundance (4.5 h post-induction vs induction); higher = less antimicrobial activity (less host growth inhibition)", "details": "time post-induction: 4.5 h; library: site-saturation at positions 5, 18, 19, 20", "values": [{"sequence": "RRIRVRPPRLPRPRPRPADHPRP", "shrunken log2 fold change": 0.206}, {"sequence": "RRIRLRPPRLPRPRPRPGGGPRP", "shrunken log2 fold change": 0.849}, {"sequence": "RRIRGRPPRLPRPRPRPGYKPRP", "shrunken log2 fold change": 0.191}, {"sequence": "RRIRGRPPRLPRPRPRPMKFPRP", "shrunken log2 fold change": 0.0112}, {"sequence": "RRIRFRPPRLPRPRPRPFDSPRP", "shrunken log2 fold change": -0.22}, {"sequence": "RRIRERPPRLPRPRPRPNQRPRP", "shrunken log2 fold change": -0.0506}, {"sequence": "RRIRGRPPRLPRPRPRPGCMPRP", "shrunken log2 fold change": 0.898}, {"sequence": "RRIRNRPPRLPRPRPRPIQLPRP", "shrunken log2 fold change": -0.203}, {"sequence": "RRIRNRPPRLPRPRPRPVTDPRP", "shrunken log2 fold change": -0.013}, {"sequence": "RRIRQRPPRLPRPRPRPRKFPRP", "shrunken log2 fold change": 0.214}, {"sequence": "RRIRHRPPRLPRPRPRPQQYPRP", "shrunken log2 fold change": -0.706}, {"sequence": "RRIRSRPPRLPRPRPRPDHFPRP", "shrunken log2 fold change": 0.0963}, {"sequence": "RRIRDRPPRLPRPRPRPREVPRP", "shrunken log2 fold change": 0.454}, {"sequence": "RRIRVRPPRLPRPRPRPVRNPRP", "shrunken log2 fold change": 0.105}, {"sequence": "RRIRWRPPRLPRPRPRPYGWPRP", "shrunken log2 fold change": -0.0271}, {"sequence": "RRIRVRPPRLPRPRPRPSSAPRP", "shrunken log2 fold change": 0.0552}, {"sequence": "RRIRLRPPRLPRPRPRPVTLPRP", "shrunken log2 fold change": -0.751}, {"sequence": "RRIRKRPPRLPRPRPRPHDMPRP", "shrunken log2 fold change": 0.0328}, {"sequence": "RRIRPRPPRLPRPRPRPNRTPRP", "shrunken log2 fold change": -0.0847}, {"sequence": "RRIRPRPPRLPRPRPRPTFVPRP", "shrunken log2 fold change": 0.012}, {"sequence": "RRIRCRPPRLPRPRPRPGDVPRP", "shrunken log2 fold change": -0.319}, {"sequence": "RRIRERPPRLPRPRPRPKKIPRP", "shrunken log2 fold change": -0.515}, {"sequence": "RRIRQRPPRLPRPRPRPSHLPRP", "shrunken log2 fold change": 0.049}, {"sequence": "RRIRCRPPRLPRPRPRPHWNPRP", "shrunken log2 fold change": -0.551}, {"sequence": "RRIRCRPPRLPRPRPRPDGRPRP", "shrunken log2 fold change": 0.00474}, {"sequence": "RRIRFRPPRLPRPRPRPRVEPRP", "shrunken log2 fold change": 0.61}, {"sequence": "RRIRFRPPRLPRPRPRPLMEPRP", "shrunken log2 fold change": -0.00741}, {"sequence": "RRIRIRPPRLPRPRPRPNYMPRP", "shrunken log2 fold change": -0.177}, {"sequence": "RRIRMRPPRLPRPRPRPGMDPRP", "shrunken log2 fold change": 0.32}, {"sequence": "RRIRGRPPRLPRPRPRPSLCPRP", "shrunken log2 fold change": 1.73}, {"sequence": "RRIRLRPPRLPRPRPRPKMHPRP", "shrunken log2 fold change": 0.0307}, {"sequence": "RRIRWRPPRLPRPRPRPFTTPRP", "shrunken log2 fold change": -0.0833}, {"sequence": "RRIRLRPPRLPRPRPRPGCRPRP", "shrunken log2 fold change": 0.157}, {"sequence": "RRIRVRPPRLPRPRPRPETEPRP", "shrunken log2 fold change": 0.276}, {"sequence": "RRIRQRPPRLPRPRPRPRPDPRP", "shrunken log2 fold change": 0.191}, {"sequence": "RRIRSRPPRLPRPRPRPIFSPRP", "shrunken log2 fold change": -0.617}, {"sequence": "RRIRYRPPRLPRPRPRPPDGPRP", "shrunken log2 fold change": 0.176}, {"sequence": "RRIRIRPPRLPRPRPRPDVNPRP", "shrunken log2 fold change": 0.0617}, {"sequence": "RRIRTRPPRLPRPRPRPGMMPRP", "shrunken log2 fold change": -0.211}, {"sequence": "RRIRERPPRLPRPRPRPAWYPRP", "shrunken log2 fold change": -0.179}, {"sequence": "RRIRARPPRLPRPRPRPIVCPRP", "shrunken log2 fold change": 0.00943}, {"sequence": "RRIRHRPPRLPRPRPRPGFHPRP", "shrunken log2 fold change": -0.323}, {"sequence": "RRIRWRPPRLPRPRPRPNLAPRP", "shrunken log2 fold change": 0.0306}, {"sequence": "RRIRFRPPRLPRPRPRPFKWPRP", "shrunken log2 fold change": -0.269}, {"sequence": "RRIRQRPPRLPRPRPRPWTWPRP", "shrunken log2 fold change": -0.0328}, {"sequence": "RRIRVRPPRLPRPRPRPHPDPRP", "shrunken log2 fold change": 0.015}, {"sequence": "RRIRDRPPRLPRPRPRPCIQPRP", "shrunken log2 fold change": -0.0125}, {"sequence": "RRIRGRPPRLPRPRPRPGNAPRP", "shrunken log2 fold change": 0.478}, {"sequence": "RRIRTRPPRLPRPRPRPLDYPRP", "shrunken log2 fold change": -2.42}, {"sequence": "RRIRWRPPRLPRPRPRPTLHPRP", "shrunken log2 fold change": 0.132}, {"sequence": "RRIRARPPRLPRPRPRPAGPPRP", "shrunken log2 fold change": 0.453}, {"sequence": "RRIRPRPPRLPRPRPRPPVQPRP", "shrunken log2 fold change": 0.341}, {"sequence": "RRIRTRPPRLPRPRPRPPFDPRP", "shrunken log2 fold change": 0.104}, {"sequence": "RRIRSRPPRLPRPRPRPIWEPRP", "shrunken log2 fold change": 0.0462}, {"sequence": "RRIRDRPPRLPRPRPRPEVPPRP", "shrunken log2 fold change": 0.0916}, {"sequence": "RRIRNRPPRLPRPRPRPITKPRP", "shrunken log2 fold change": -0.113}, {"sequence": "RRIRYRPPRLPRPRPRPSWQPRP", "shrunken log2 fold change": -0.526}, {"sequence": "RRIRNRPPRLPRPRPRPGIMPRP", "shrunken log2 fold change": -0.186}, {"sequence": "RRIRCRPPRLPRPRPRPWTIPRP", "shrunken log2 fold change": -0.0777}, {"sequence": "RRIRVRPPRLPRPRPRPTPCPRP", "shrunken log2 fold change": -0.147}, {"sequence": "RRIRLRPPRLPRPRPRPLHGPRP", "shrunken log2 fold change": 0.0823}, {"sequence": "RRIRTRPPRLPRPRPRPCEIPRP", "shrunken log2 fold change": 0.0393}, {"sequence": "RRIRLRPPRLPRPRPRPNCWPRP", "shrunken log2 fold change": 0.388}, {"sequence": "RRIRQRPPRLPRPRPRPMVFPRP", "shrunken log2 fold change": 0.111}, {"sequence": "RRIRSRPPRLPRPRPRPQEHPRP", "shrunken log2 fold change": -0.112}, {"sequence": "RRIRPRPPRLPRPRPRPYHRPRP", "shrunken log2 fold change": -0.00884}, {"sequence": "RRIRHRPPRLPRPRPRPKDIPRP", "shrunken log2 fold change": -0.504}, {"sequence": "RRIRMRPPRLPRPRPRPQPKPRP", "shrunken log2 fold change": 1.77}, {"sequence": "RRIRRRPPRLPRPRPRPVFHPRP", "shrunken log2 fold change": 0.258}, {"sequence": "RRIRHRPPRLPRPRPRPSNTPRP", "shrunken log2 fold change": -0.278}, {"sequence": "RRIRHRPPRLPRPRPRPEPNPRP", "shrunken log2 fold change": 0.0235}, {"sequence": "RRIRGRPPRLPRPRPRPNSTPRP", "shrunken log2 fold change": 0.344}, {"sequence": "RRIRERPPRLPRPRPRPFQYPRP", "shrunken log2 fold change": -0.64}, {"sequence": "RRIRPRPPRLPRPRPRPQYEPRP", "shrunken log2 fold change": -0.583}, {"sequence": "RRIRERPPRLPRPRPRPFKWPRP", "shrunken log2 fold change": -0.0223}]}]}
